# In US20150128304A1 (UNIVERSITY OF TOKYO, published 2015):
# Biological target: T1, DREB2A full-length fused to a YFP fragment (BiFC construct in pBI221) (Arabidopsis thaliana, UniProt O82132 1-335)
# T1 construct: domain: full-length; Transiently expressed in Arabidopsis protoplasts, MG132 added to stabilise DREB2A; not shown: N-terminal or C-terminal half of YFP
# Test: BiFC (split YFP), transient expression in Arabidopsis protoplasts
# Procedure: Transient expression analysis using protoplasts from Arabidopsis thaliana mesophyll cells was conducted in accordance with the method of Yoo et al. [Yoo et al., Nat. Protoc., Vol. 2, pp. 1565-1572 ([…])]. To offer a brief explanation, the gene was introduced into the protoplast; after standing for 14 hours, MG132, a proteasome inhibitor, was added to make a final concentration of 50 μM to stabilize the DREB2A in the plant. After standing for another 4 hours, the YFP fluorescence was examined.
# Specifically, two plasmids containing DREB2A and Arabidopsis thaliana NF-YC10 were produced by amplifying full-length cDNA of DREB2A and full-length cDNA of Arabidopsis thaliana NF-YC10 by PCR and attaching each to either pBI221 [Qin et al., Plant Cell, Vol. 20, pp. 1693-1707 (2008)] which is an expression vector containing cDNA encoding the N terminal side or C terminal side of YFP, and a transient expression analysis study of both plasmids was conducted. Furthermore, one transferred from Feng Qin Ph.D. (Japan International Research Center for Agricultural Sciences, Japan) was used as the DREB2A full-length cDNA-ligated pBI221 plasmid. Full-length cDNA of Arabidopsis thaliana NF-YC10 was produced by amplification by PCR using the following primer pair and introduction at the XbaI/ClaI site of the above expression vector.
# T1 sequence (O82132 whole entry, the tested form may be a part): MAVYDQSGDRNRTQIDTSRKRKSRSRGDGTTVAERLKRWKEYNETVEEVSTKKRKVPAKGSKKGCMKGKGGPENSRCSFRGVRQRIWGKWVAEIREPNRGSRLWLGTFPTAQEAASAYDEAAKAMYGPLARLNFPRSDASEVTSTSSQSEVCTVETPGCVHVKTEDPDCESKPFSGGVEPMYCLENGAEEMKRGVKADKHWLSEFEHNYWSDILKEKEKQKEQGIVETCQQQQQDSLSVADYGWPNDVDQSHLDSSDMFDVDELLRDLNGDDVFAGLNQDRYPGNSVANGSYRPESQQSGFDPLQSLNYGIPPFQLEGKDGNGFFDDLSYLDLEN
binder,measurement,value
"Arabidopsis thaliana NF-YC10 full-length fused to a YFP fragment (BiFC construct in pBI221) (other, Transiently expressed in Arabidopsis thaliana mesophyll protoplasts; not shown: N-terminal or C-terminal half of YFP) MVSSKKPKEKKARSDVVVNKASGRSKRSSGSRTKKTSNKVNIVKKKPEIYEISESSSSDSVEEAIRGDEAKKSNGVVSKRGNGKSVGIPTKTSKNREEDDGGAEDAKIKFPMNRIRRIMRSDNSAPQIMQDAVFLVNKATEMFIERFSEEAYDSSVKDKKKFIHYKHLSSVVSNDQRYEFLADSVPEKLKAEAALEEWERGMTDAG",binding result,binds
